This passage reports binding result, binding signal and Kd results from paper PMC3381513.

Where two headings read alike, the source gives them in different places.

Data set [1] has as its target T1, CUGBP1 RRM1/2 (human, UniProt Q92879 14-187). The data set can be described thus: crystal structure.
Data set [2] addresses T1, CUGBP1 RRM1/2. The data set is described as follows: filter binding.
Data set [3] has as its target T1, CUGBP1 RRM1/2. The data set is described as follows: filter binding. This is another data set of the same source.
Data set [4] has as its target T1, CUGBP1 RRM1/2. The data set can be described thus: filter binding. This is another data set of the same source.
In data set [5] the target is T1, CUGBP1 RRM1/2. The data set can be described thus: EMSA. For orientation: A gel shift assay detects complexes by their altered migration in electrophoresis.
A further data set addresses CUGBP1 RRM2 (ITC) (human, UniProt Q92879 109-187). The data set is described as follows: ITC. (In general: Isothermal titration calorimetry measures the heat released or taken up as one component is titrated into another.)
In a further data set the target is CUGBP1 RRM1 (ITC) (human, UniProt Q92879 16-99). The data set can be described thus: ITC.
CUGBP1 RRM1 (ITC), sequence (Q92879 16-99): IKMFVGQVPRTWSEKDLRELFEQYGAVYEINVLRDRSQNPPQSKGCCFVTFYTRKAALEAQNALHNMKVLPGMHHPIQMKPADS

T1 sequence (Q92879 14-187): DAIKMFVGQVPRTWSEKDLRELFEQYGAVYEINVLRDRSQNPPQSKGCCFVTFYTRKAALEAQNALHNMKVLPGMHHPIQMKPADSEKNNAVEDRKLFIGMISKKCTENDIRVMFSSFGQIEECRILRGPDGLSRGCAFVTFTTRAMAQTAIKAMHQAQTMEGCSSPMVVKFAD
CUGBP1 RRM2 (ITC), sequence (Q92879 109-187): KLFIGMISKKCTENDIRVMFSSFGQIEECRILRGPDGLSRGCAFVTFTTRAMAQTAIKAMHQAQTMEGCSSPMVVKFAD

For GUUGUUUUUGUU (ssRNA, U8 = 5-bromouridine) [BrU8 sequence 2], the binding result with CUGBP1 RRM1/2 [1] is “binds”.
GUUGCUUUUGCU (ssRNA) [C5C11]: the binding signal with CUGBP1 RRM1/2 [2] was ~5 fold loss in affinity vs N2.
For GUUCUUUUUCUU (ssRNA) [C4C10], the binding result with CUGBP1 RRM1/2 [3] is “no binding”.
With GUUAUUUUUAUU (ssRNA) [A4A10], the binding result with CUGBP1 RRM1/2 [3] is “no binding”.
In the case of GUUUUUUUUUUU (ssRNA) [U4U10], in the data set with CUGBP1 RRM1/2 [3], the binding result is recorded as “no binding”.
With GUUAUUUUUGUU (ssRNA) [A4G10], the binding signal with CUGBP1 RRM1/2 [4] was 4.4 fold reduction in binding vs N2.
For the molecule GUUGUUUUUAUU (ssRNA) [G4A10], the binding signal with CUGBP1 RRM1/2 [4] is 2.5 fold reduction in binding vs N2.
Take UGUGUGUUGUGUG (ssRNA) [sequence 3, 13-mer]: in the data set with CUGBP1 RRM1/2 [5], the binding result is “binds”.
Take UUGUU (ssRNA) [UUGUU 5-nt]: the Kd with CUGBP1 RRM2 (ITC) was found to be 45 µM; in the data set with CUGBP1 RRM1 (ITC) it was 29 µM.
GUUGUUUUUGUU (ssRNA, U2 = 5-bromouridine) [BrU2 sequence 2]: the binding result with CUGBP1 RRM1/2 [1] is on record as “binds”.

Broadly, the Kd is the concentration at which binding is half-saturated. Read a high Kd as a looser complex.
